Assay results published in patent US20210139548A1 (published 2021).
Values belong to the binder of their own block, whether it stands above or below them. *1 amine or outer side, *2 acyl side, *3 side chain or, on linkers, in order; H or OH if unused. Side-chain parts run from the residue outwards. The star is where a group is joined. C18 diacid = O=C(O)CCCCCCCCCCCCCCCCC(=O)*; γGlu = O=C(O)[C@H](CCC(=O)[*:2])N[*:1]; Isovaleryl = CC(C)CC(=O)*; AEEA = NCCOCCOCC(=O)O

Assays:
human NPY1 receptor = target: T1, human NPY1 receptor (human, UniProt P25929 1-384); assay: cell-based or functional assay
T1 sequence (looked up): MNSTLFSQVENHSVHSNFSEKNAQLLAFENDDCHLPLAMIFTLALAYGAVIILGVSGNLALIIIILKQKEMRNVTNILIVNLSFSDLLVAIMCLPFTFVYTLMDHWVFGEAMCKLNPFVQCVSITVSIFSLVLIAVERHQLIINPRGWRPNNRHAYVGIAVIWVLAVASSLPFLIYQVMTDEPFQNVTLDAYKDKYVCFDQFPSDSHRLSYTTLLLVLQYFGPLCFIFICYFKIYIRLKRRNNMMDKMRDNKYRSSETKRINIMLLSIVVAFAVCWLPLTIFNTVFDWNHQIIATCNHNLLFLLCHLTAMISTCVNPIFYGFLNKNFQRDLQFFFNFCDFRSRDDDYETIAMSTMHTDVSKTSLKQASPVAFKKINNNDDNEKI

human NPY5 receptor = target: T2, human NPY5 receptor (human, UniProt Q15761 1-445); assay: cell-based or functional assay
T2 sequence (looked up): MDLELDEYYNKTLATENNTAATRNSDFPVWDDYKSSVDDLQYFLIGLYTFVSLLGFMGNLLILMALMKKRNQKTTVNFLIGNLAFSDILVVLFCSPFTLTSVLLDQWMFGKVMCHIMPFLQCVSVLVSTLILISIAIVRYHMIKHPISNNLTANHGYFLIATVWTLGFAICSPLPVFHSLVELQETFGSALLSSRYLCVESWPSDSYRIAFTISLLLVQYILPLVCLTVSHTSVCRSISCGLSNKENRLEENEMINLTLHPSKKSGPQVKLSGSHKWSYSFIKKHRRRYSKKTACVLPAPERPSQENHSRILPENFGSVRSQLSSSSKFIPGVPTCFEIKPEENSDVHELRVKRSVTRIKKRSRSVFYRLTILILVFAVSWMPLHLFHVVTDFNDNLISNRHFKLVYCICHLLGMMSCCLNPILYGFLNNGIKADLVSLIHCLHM

human NPY4 receptor = human NPY4 receptor (human, UniProt P50391 1-375); assay: cell-based or functional assay
[1] = target: T3, human neuropeptide Y2 receptor (human, UniProt P49146 1-381); assay: radioligand competition (125I-PYY(1-36)), hNPY2R membranes
T3 construct: whole, on cells; also called hNPY2 receptor; hNPY2-R
T3 sequence (looked up): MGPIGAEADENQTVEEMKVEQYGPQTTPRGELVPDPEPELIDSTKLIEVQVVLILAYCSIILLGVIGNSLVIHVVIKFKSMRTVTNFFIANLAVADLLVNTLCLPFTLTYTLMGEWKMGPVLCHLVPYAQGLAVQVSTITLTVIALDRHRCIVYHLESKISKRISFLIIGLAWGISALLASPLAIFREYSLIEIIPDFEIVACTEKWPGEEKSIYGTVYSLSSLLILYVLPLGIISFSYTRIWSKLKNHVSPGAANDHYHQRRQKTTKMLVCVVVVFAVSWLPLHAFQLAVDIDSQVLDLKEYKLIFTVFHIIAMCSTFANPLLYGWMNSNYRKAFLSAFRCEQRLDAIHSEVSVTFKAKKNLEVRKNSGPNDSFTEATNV
Procedure, shortened: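 Commercial human Y2 receptor membranes (0.5 μg protein/well) were incubated with peptide for 2 h at room temperature in 50 mM HEPES, 5 mM MgCl₂, 1 mM CaCl₂, pH 7.4, with 0.2% ovalbumin. Bound radioligand was separated on PEI-soaked GF/C filters and counted by scintillation, and IC₅₀ came from nonlinear sigmoidal regression.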

Chain of human NPY4 receptor (P50391 whole entry): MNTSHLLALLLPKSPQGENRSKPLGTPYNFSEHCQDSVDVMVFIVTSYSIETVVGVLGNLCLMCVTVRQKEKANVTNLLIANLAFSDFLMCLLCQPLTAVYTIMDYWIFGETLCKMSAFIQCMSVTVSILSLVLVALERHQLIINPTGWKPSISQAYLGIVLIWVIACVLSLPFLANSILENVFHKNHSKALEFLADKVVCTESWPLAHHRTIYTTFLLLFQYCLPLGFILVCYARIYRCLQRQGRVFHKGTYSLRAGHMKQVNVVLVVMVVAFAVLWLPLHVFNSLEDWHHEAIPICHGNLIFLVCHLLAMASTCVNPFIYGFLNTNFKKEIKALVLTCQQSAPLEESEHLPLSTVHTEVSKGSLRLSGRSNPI

Binder: Isovaleryl-APEK([AEEA-AEEA-γGlu-C18 diacid])PEEDATPEEIQRYYVSLRHYYNWLTRQRY-NH2 [Compound 171]
EC50 (HTRF cAMP Gi assay) (human NPY1 receptor): > 5000 nM
EC50 (HTRF cAMP Gi assay) (human NPY5 receptor): > 5000 nM
EC50 (HTRF cAMP Gi assay) (human NPY4 receptor): > 5000 nM

B2: Compound 241 (peptide)
peptide: Isovaleryl-APEK([AEEA-AEEA-γGlu-C18 diacid])PEEEASPEEIQRYYVSLRHYYNWLTRQRY-NH2
SMILES: CC[C@H](C)[C@H](NC(=O)[C@H](CCC(=O)O)NC(=O)[C@H](CCC(=O)O)NC(=O)[C@@H]1CCCN1C(=O)[C@H](CO)NC(=O)[C@H](C)NC(=O)[C@H](CCC(=O)O)NC(=O)[C@H](CCC(=O)O)NC(=O)[C@H](CCC(=O)O)NC(=O)[C@@H]1CCCN1C(=O)[C@H](CCCCNC(=O)COCCOCCNC(=O)COCCOCCNC(=O)CC[C@H](NC(=O)CCCCCCCCCCCCCCCCC(=O)O)C(=O)O)NC(=O)[C@H](CCC(=O)O)NC(=O)[C@@H]1CCCN1C(=O)[C@H](C)NC(=O)CC(C)C)C(=O)N[C@@H](CCC(N)=O)C(=O)N[C@@H](CCCNC(=N)N)C(=O)N[C@@H](Cc1ccc(O)cc1)C(=O)N[C@@H](Cc1ccc(O)cc1)C(=O)N[C@H](C(=O)N[C@@H](CO)C(=O)N[C@@H](CC(C)C)C(=O)N[C@@H](CCCNC(=N)N)C(=O)N[C@@H](Cc1c[nH]cn1)C(=O)N[C@@H](Cc1ccc(O)cc1)C(=O)N[C@@H](Cc1ccc(O)cc1)C(=O)N[C@@H](CC(N)=O)C(=O)N[C@@H](Cc1c[nH]c2ccccc12)C(=O)N[C@@H](CC(C)C)C(=O)N[C@H](C(=O)N[C@@H](CCCNC(=N)N)C(=O)N[C@@H](CCC(N)=O)C(=O)N[C@@H](CCCNC(=N)N)C(=O)N[C@@H](Cc1ccc(O)cc1)C(N)=O)[C@@H](C)O)C(C)C
Ki [1]: 2.95 nM

B4: Compound 238 (peptide)
peptide: Isovaleryl-APEK([AEEA-AEEA-γGlu-C18 diacid])TEEEASPEELQRYYVSLRHYYNWLTRQRY-NH2
SMILES: CC(C)CC(=O)N[C@@H](C)C(=O)N1CCC[C@H]1C(=O)N[C@@H](CCC(=O)O)C(=O)N[C@@H](CCCCNC(=O)COCCOCCNC(=O)COCCOCCNC(=O)CC[C@H](NC(=O)CCCCCCCCCCCCCCCCC(=O)O)C(=O)O)C(=O)N[C@H](C(=O)N[C@@H](CCC(=O)O)C(=O)N[C@@H](CCC(=O)O)C(=O)N[C@@H](CCC(=O)O)C(=O)N[C@@H](C)C(=O)N[C@@H](CO)C(=O)N1CCC[C@H]1C(=O)N[C@@H](CCC(=O)O)C(=O)N[C@@H](CCC(=O)O)C(=O)N[C@@H](CC(C)C)C(=O)N[C@@H](CCC(N)=O)C(=O)N[C@@H](CCCNC(=N)N)C(=O)N[C@@H](Cc1ccc(O)cc1)C(=O)N[C@@H](Cc1ccc(O)cc1)C(=O)N[C@H](C(=O)N[C@@H](CO)C(=O)N[C@@H](CC(C)C)C(=O)N[C@@H](CCCNC(=N)N)C(=O)N[C@@H](Cc1c[nH]cn1)C(=O)N[C@@H](Cc1ccc(O)cc1)C(=O)N[C@@H](Cc1ccc(O)cc1)C(=O)N[C@@H](CC(N)=O)C(=O)N[C@@H](Cc1c[nH]c2ccccc12)C(=O)N[C@@H](CC(C)C)C(=O)N[C@H](C(=O)N[C@@H](CCCNC(=N)N)C(=O)N[C@@H](CCC(N)=O)C(=O)N[C@@H](CCCNC(=N)N)C(=O)N[C@@H](Cc1ccc(O)cc1)C(N)=O)[C@@H](C)O)C(C)C)[C@@H](C)O
Ki [1]: 25.1 nM

Further binders by falling Ki [1], results first:

Ki [1]: 2.07 nM
B3: Compound 243 (peptide)
peptide: Isovaleryl-APEK([AEEA-AEEA-γGlu-C18 diacid])PEEEASPEELQQYYVSLRHYYNWLTRQRY-NH2
SMILES: CC(C)CC(=O)N[C@@H](C)C(=O)N1CCC[C@H]1C(=O)N[C@@H](CCC(=O)O)C(=O)N[C@@H](CCCCNC(=O)COCCOCCNC(=O)COCCOCCNC(=O)CC[C@H](NC(=O)CCCCCCCCCCCCCCCCC(=O)O)C(=O)O)C(=O)N1CCC[C@H]1C(=O)N[C@@H](CCC(=O)O)C(=O)N[C@@H](CCC(=O)O)C(=O)N[C@@H](CCC(=O)O)C(=O)N[C@@H](C)C(=O)N[C@@H](CO)C(=O)N1CCC[C@H]1C(=O)N[C@@H](CCC(=O)O)C(=O)N[C@@H](CCC(=O)O)C(=O)N[C@@H](CC(C)C)C(=O)N[C@@H](CCC(N)=O)C(=O)N[C@@H](CCC(N)=O)C(=O)N[C@@H](Cc1ccc(O)cc1)C(=O)N[C@@H](Cc1ccc(O)cc1)C(=O)N[C@H](C(=O)N[C@@H](CO)C(=O)N[C@@H](CC(C)C)C(=O)N[C@@H](CCCNC(=N)N)C(=O)N[C@@H](Cc1c[nH]cn1)C(=O)N[C@@H](Cc1ccc(O)cc1)C(=O)N[C@@H](Cc1ccc(O)cc1)C(=O)N[C@@H](CC(N)=O)C(=O)N[C@@H](Cc1c[nH]c2ccccc12)C(=O)N[C@@H](CC(C)C)C(=O)N[C@H](C(=O)N[C@@H](CCCNC(=N)N)C(=O)N[C@@H](CCC(N)=O)C(=O)N[C@@H](CCCNC(=N)N)C(=O)N[C@@H](Cc1ccc(O)cc1)C(N)=O)[C@@H](C)O)C(C)C

Ki [1]: 1.84 nM
B1: Compound 244 (peptide)
peptide: Isovaleryl-APEK([AEEA-AEEA-γGlu-C18 diacid])PEEDAEPAELQRYYVSLRHYYNWLTRQRY-NH2
SMILES: CC(C)CC(=O)N[C@@H](C)C(=O)N1CCC[C@H]1C(=O)N[C@@H](CCC(=O)O)C(=O)N[C@@H](CCCCNC(=O)COCCOCCNC(=O)COCCOCCNC(=O)CC[C@H](NC(=O)CCCCCCCCCCCCCCCCC(=O)O)C(=O)O)C(=O)N1CCC[C@H]1C(=O)N[C@@H](CCC(=O)O)C(=O)N[C@@H](CCC(=O)O)C(=O)N[C@@H](CC(=O)O)C(=O)N[C@@H](C)C(=O)N[C@@H](CCC(=O)O)C(=O)N1CCC[C@H]1C(=O)N[C@@H](C)C(=O)N[C@@H](CCC(=O)O)C(=O)N[C@@H](CC(C)C)C(=O)N[C@@H](CCC(N)=O)C(=O)N[C@@H](CCCNC(=N)N)C(=O)N[C@@H](Cc1ccc(O)cc1)C(=O)N[C@@H](Cc1ccc(O)cc1)C(=O)N[C@H](C(=O)N[C@@H](CO)C(=O)N[C@@H](CC(C)C)C(=O)N[C@@H](CCCNC(=N)N)C(=O)N[C@@H](Cc1c[nH]cn1)C(=O)N[C@@H](Cc1ccc(O)cc1)C(=O)N[C@@H](Cc1ccc(O)cc1)C(=O)N[C@@H](CC(N)=O)C(=O)N[C@@H](Cc1c[nH]c2ccccc12)C(=O)N[C@@H](CC(C)C)C(=O)N[C@H](C(=O)N[C@@H](CCCNC(=N)N)C(=O)N[C@@H](CCC(N)=O)C(=O)N[C@@H](CCCNC(=N)N)C(=O)N[C@@H](Cc1ccc(O)cc1)C(N)=O)[C@@H](C)O)C(C)C

Ki [1]: 0.81 nM
B5: Compound 242 (peptide)
peptide: Isovaleryl-APEK([AEEA-AEEA-γGlu-C18 diacid])PEADASAEELQRYYVSLRHYYNWLTRQRY-NH2
SMILES: CC(C)CC(=O)N[C@@H](C)C(=O)N1CCC[C@H]1C(=O)N[C@@H](CCC(=O)O)C(=O)N[C@@H](CCCCNC(=O)COCCOCCNC(=O)COCCOCCNC(=O)CC[C@H](NC(=O)CCCCCCCCCCCCCCCCC(=O)O)C(=O)O)C(=O)N1CCC[C@H]1C(=O)N[C@@H](CCC(=O)O)C(=O)N[C@@H](C)C(=O)N[C@@H](CC(=O)O)C(=O)N[C@@H](C)C(=O)N[C@@H](CO)C(=O)N[C@@H](C)C(=O)N[C@@H](CCC(=O)O)C(=O)N[C@@H](CCC(=O)O)C(=O)N[C@@H](CC(C)C)C(=O)N[C@@H](CCC(N)=O)C(=O)N[C@@H](CCCNC(=N)N)C(=O)N[C@@H](Cc1ccc(O)cc1)C(=O)N[C@@H](Cc1ccc(O)cc1)C(=O)N[C@H](C(=O)N[C@@H](CO)C(=O)N[C@@H](CC(C)C)C(=O)N[C@@H](CCCNC(=N)N)C(=O)N[C@@H](Cc1c[nH]cn1)C(=O)N[C@@H](Cc1ccc(O)cc1)C(=O)N[C@@H](Cc1ccc(O)cc1)C(=O)N[C@@H](CC(N)=O)C(=O)N[C@@H](Cc1c[nH]c2ccccc12)C(=O)N[C@@H](CC(C)C)C(=O)N[C@H](C(=O)N[C@@H](CCCNC(=N)N)C(=O)N[C@@H](CCC(N)=O)C(=O)N[C@@H](CCCNC(=N)N)C(=O)N[C@@H](Cc1ccc(O)cc1)C(N)=O)[C@@H](C)O)C(C)C
